From US20180009871A1 (INTARCIA THERAPEUTICS, published 2018)
Where no end group is shown, it is not given here. [ ]: non-standard residue; d: D form. Aib = CC(C)(N)C(=O)O

B1: Compound A9 (peptide)
peptide: YSHGTFTSDYSKYLD[Aib]KRAQEFV[Aib]WLEEEPSSGAPPPS-OH
modifications: N-terminus assumed
SMILES: CC(C)C[C@H](NC(=O)[C@H](Cc1ccc(O)cc1)NC(=O)[C@H](CCCCN)NC(=O)[C@H](CO)NC(=O)[C@H](Cc1ccc(O)cc1)NC(=O)[C@H](CC(=O)O)NC(=O)[C@H](CO)NC(=O)[C@@H](NC(=O)[C@H](Cc1ccccc1)NC(=O)[C@@H](NC(=O)CNC(=O)[C@H](Cc1c[nH]cn1)NC(=O)[C@H](CO)NC(=O)[C@@H](N)Cc1ccc(O)cc1)[C@@H](C)O)[C@@H](C)O)C(=O)N[C@@H](CC(=O)O)C(=O)NC(C)(C)C(=O)N[C@@H](CCCCN)C(=O)N[C@@H](CCCNC(=N)N)C(=O)N[C@@H](C)C(=O)N[C@@H](CCC(N)=O)C(=O)N[C@@H](CCC(=O)O)C(=O)N[C@@H](Cc1ccccc1)C(=O)N[C@H](C(=O)NC(C)(C)C(=O)N[C@@H](Cc1c[nH]c2ccccc12)C(=O)N[C@@H](CC(C)C)C(=O)N[C@@H](CCC(=O)O)C(=O)N[C@@H](CCC(=O)O)C(=O)N[C@@H](CCC(=O)O)C(=O)N1CCC[C@H]1C(=O)N[C@@H](CO)C(=O)N[C@@H](CO)C(=O)NCC(=O)N[C@@H](C)C(=O)N1CCC[C@H]1C(=O)N1CCC[C@H]1C(=O)N1CCC[C@H]1C(=O)N[C@@H](CO)C(=O)O)C(C)C
B2: Compound A10 (peptide)
peptide: YSHGTFTSDYSKYLD[Aib]KRAQEFV[Aib]WLEDEEPSSGAPPPS-OH
modifications: N-terminus assumed
SMILES: CC(C)C[C@H](NC(=O)[C@H](Cc1ccc(O)cc1)NC(=O)[C@H](CCCCN)NC(=O)[C@H](CO)NC(=O)[C@H](Cc1ccc(O)cc1)NC(=O)[C@H](CC(=O)O)NC(=O)[C@H](CO)NC(=O)[C@@H](NC(=O)[C@H](Cc1ccccc1)NC(=O)[C@@H](NC(=O)CNC(=O)[C@H](Cc1c[nH]cn1)NC(=O)[C@H](CO)NC(=O)[C@@H](N)Cc1ccc(O)cc1)[C@@H](C)O)[C@@H](C)O)C(=O)N[C@@H](CC(=O)O)C(=O)NC(C)(C)C(=O)N[C@@H](CCCCN)C(=O)N[C@@H](CCCNC(=N)N)C(=O)N[C@@H](C)C(=O)N[C@@H](CCC(N)=O)C(=O)N[C@@H](CCC(=O)O)C(=O)N[C@@H](Cc1ccccc1)C(=O)N[C@H](C(=O)NC(C)(C)C(=O)N[C@@H](Cc1c[nH]c2ccccc12)C(=O)N[C@@H](CC(C)C)C(=O)N[C@@H](CCC(=O)O)C(=O)N[C@@H](CC(=O)O)C(=O)N[C@@H](CCC(=O)O)C(=O)N[C@@H](CCC(=O)O)C(=O)N1CCC[C@H]1C(=O)N[C@@H](CO)C(=O)N[C@@H](CO)C(=O)NCC(=O)N[C@@H](C)C(=O)N1CCC[C@H]1C(=O)N1CCC[C@H]1C(=O)N1CCC[C@H]1C(=O)N[C@@H](CO)C(=O)O)C(C)C
B3: Compound A11 (peptide)
peptide: YSHGTFTSDYSKYLD[Aib]KRAQEFV[Aib]WLEDEEEPSSGAPPPS-OH
modifications: N-terminus assumed
SMILES: CC(C)C[C@H](NC(=O)[C@H](Cc1ccc(O)cc1)NC(=O)[C@H](CCCCN)NC(=O)[C@H](CO)NC(=O)[C@H](Cc1ccc(O)cc1)NC(=O)[C@H](CC(=O)O)NC(=O)[C@H](CO)NC(=O)[C@@H](NC(=O)[C@H](Cc1ccccc1)NC(=O)[C@@H](NC(=O)CNC(=O)[C@H](Cc1c[nH]cn1)NC(=O)[C@H](CO)NC(=O)[C@@H](N)Cc1ccc(O)cc1)[C@@H](C)O)[C@@H](C)O)C(=O)N[C@@H](CC(=O)O)C(=O)NC(C)(C)C(=O)N[C@@H](CCCCN)C(=O)N[C@@H](CCCNC(=N)N)C(=O)N[C@@H](C)C(=O)N[C@@H](CCC(N)=O)C(=O)N[C@@H](CCC(=O)O)C(=O)N[C@@H](Cc1ccccc1)C(=O)N[C@H](C(=O)NC(C)(C)C(=O)N[C@@H](Cc1c[nH]c2ccccc12)C(=O)N[C@@H](CC(C)C)C(=O)N[C@@H](CCC(=O)O)C(=O)N[C@@H](CC(=O)O)C(=O)N[C@@H](CCC(=O)O)C(=O)N[C@@H](CCC(=O)O)C(=O)N[C@@H](CCC(=O)O)C(=O)N1CCC[C@H]1C(=O)N[C@@H](CO)C(=O)N[C@@H](CO)C(=O)NCC(=O)N[C@@H](C)C(=O)N1CCC[C@H]1C(=O)N1CCC[C@H]1C(=O)N1CCC[C@H]1C(=O)N[C@@H](CO)C(=O)O)C(C)C
B4: Compound A12 (peptide)
peptide: YSHGTFTSDYSKYLD[Aib]KRAQEFV[Aib]WLEDEGAPPPS-OH
modifications: N-terminus assumed
SMILES: CC(C)C[C@H](NC(=O)[C@H](Cc1ccc(O)cc1)NC(=O)[C@H](CCCCN)NC(=O)[C@H](CO)NC(=O)[C@H](Cc1ccc(O)cc1)NC(=O)[C@H](CC(=O)O)NC(=O)[C@H](CO)NC(=O)[C@@H](NC(=O)[C@H](Cc1ccccc1)NC(=O)[C@@H](NC(=O)CNC(=O)[C@H](Cc1c[nH]cn1)NC(=O)[C@H](CO)NC(=O)[C@@H](N)Cc1ccc(O)cc1)[C@@H](C)O)[C@@H](C)O)C(=O)N[C@@H](CC(=O)O)C(=O)NC(C)(C)C(=O)N[C@@H](CCCCN)C(=O)N[C@@H](CCCNC(=N)N)C(=O)N[C@@H](C)C(=O)N[C@@H](CCC(N)=O)C(=O)N[C@@H](CCC(=O)O)C(=O)N[C@@H](Cc1ccccc1)C(=O)N[C@H](C(=O)NC(C)(C)C(=O)N[C@@H](Cc1c[nH]c2ccccc12)C(=O)N[C@@H](CC(C)C)C(=O)N[C@@H](CCC(=O)O)C(=O)N[C@@H](CC(=O)O)C(=O)N[C@@H](CCC(=O)O)C(=O)NCC(=O)N[C@@H](C)C(=O)N1CCC[C@H]1C(=O)N1CCC[C@H]1C(=O)N1CCC[C@H]1C(=O)N[C@@H](CO)C(=O)O)C(C)C
B5: Compound A13 (peptide)
peptide: YSHGTFTSDYSKYLD[Aib]KRAQEFV[Aib]WLEDESGAPPPS-OH
modifications: N-terminus assumed
SMILES: CC(C)C[C@H](NC(=O)[C@H](Cc1ccc(O)cc1)NC(=O)[C@H](CCCCN)NC(=O)[C@H](CO)NC(=O)[C@H](Cc1ccc(O)cc1)NC(=O)[C@H](CC(=O)O)NC(=O)[C@H](CO)NC(=O)[C@@H](NC(=O)[C@H](Cc1ccccc1)NC(=O)[C@@H](NC(=O)CNC(=O)[C@H](Cc1c[nH]cn1)NC(=O)[C@H](CO)NC(=O)[C@@H](N)Cc1ccc(O)cc1)[C@@H](C)O)[C@@H](C)O)C(=O)N[C@@H](CC(=O)O)C(=O)NC(C)(C)C(=O)N[C@@H](CCCCN)C(=O)N[C@@H](CCCNC(=N)N)C(=O)N[C@@H](C)C(=O)N[C@@H](CCC(N)=O)C(=O)N[C@@H](CCC(=O)O)C(=O)N[C@@H](Cc1ccccc1)C(=O)N[C@H](C(=O)NC(C)(C)C(=O)N[C@@H](Cc1c[nH]c2ccccc12)C(=O)N[C@@H](CC(C)C)C(=O)N[C@@H](CCC(=O)O)C(=O)N[C@@H](CC(=O)O)C(=O)N[C@@H](CCC(=O)O)C(=O)N[C@@H](CO)C(=O)NCC(=O)N[C@@H](C)C(=O)N1CCC[C@H]1C(=O)N1CCC[C@H]1C(=O)N1CCC[C@H]1C(=O)N[C@@H](CO)C(=O)O)C(C)C
B6: Compound A14 (peptide)
peptide: YSHGTFTSDYSKYLD[Aib]KRAQEFV[Aib]WLEDESSGAPPPS-OH
modifications: N-terminus assumed
SMILES: CC(C)C[C@H](NC(=O)[C@H](Cc1ccc(O)cc1)NC(=O)[C@H](CCCCN)NC(=O)[C@H](CO)NC(=O)[C@H](Cc1ccc(O)cc1)NC(=O)[C@H](CC(=O)O)NC(=O)[C@H](CO)NC(=O)[C@@H](NC(=O)[C@H](Cc1ccccc1)NC(=O)[C@@H](NC(=O)CNC(=O)[C@H](Cc1c[nH]cn1)NC(=O)[C@H](CO)NC(=O)[C@@H](N)Cc1ccc(O)cc1)[C@@H](C)O)[C@@H](C)O)C(=O)N[C@@H](CC(=O)O)C(=O)NC(C)(C)C(=O)N[C@@H](CCCCN)C(=O)N[C@@H](CCCNC(=N)N)C(=O)N[C@@H](C)C(=O)N[C@@H](CCC(N)=O)C(=O)N[C@@H](CCC(=O)O)C(=O)N[C@@H](Cc1ccccc1)C(=O)N[C@H](C(=O)NC(C)(C)C(=O)N[C@@H](Cc1c[nH]c2ccccc12)C(=O)N[C@@H](CC(C)C)C(=O)N[C@@H](CCC(=O)O)C(=O)N[C@@H](CC(=O)O)C(=O)N[C@@H](CCC(=O)O)C(=O)N[C@@H](CO)C(=O)N[C@@H](CO)C(=O)NCC(=O)N[C@@H](C)C(=O)N1CCC[C@H]1C(=O)N1CCC[C@H]1C(=O)N1CCC[C@H]1C(=O)N[C@@H](CO)C(=O)O)C(C)C
B7: Compound A15 (peptide)
peptide: YSHGTFTSDYSKYLD[Aib]SRAQEFV[Aib]WLEDEPSSGAPPPS-OH
modifications: N-terminus assumed
SMILES: CC(C)C[C@H](NC(=O)[C@H](Cc1ccc(O)cc1)NC(=O)[C@H](CCCCN)NC(=O)[C@H](CO)NC(=O)[C@H](Cc1ccc(O)cc1)NC(=O)[C@H](CC(=O)O)NC(=O)[C@H](CO)NC(=O)[C@@H](NC(=O)[C@H](Cc1ccccc1)NC(=O)[C@@H](NC(=O)CNC(=O)[C@H](Cc1c[nH]cn1)NC(=O)[C@H](CO)NC(=O)[C@@H](N)Cc1ccc(O)cc1)[C@@H](C)O)[C@@H](C)O)C(=O)N[C@@H](CC(=O)O)C(=O)NC(C)(C)C(=O)N[C@@H](CO)C(=O)N[C@@H](CCCNC(=N)N)C(=O)N[C@@H](C)C(=O)N[C@@H](CCC(N)=O)C(=O)N[C@@H](CCC(=O)O)C(=O)N[C@@H](Cc1ccccc1)C(=O)N[C@H](C(=O)NC(C)(C)C(=O)N[C@@H](Cc1c[nH]c2ccccc12)C(=O)N[C@@H](CC(C)C)C(=O)N[C@@H](CCC(=O)O)C(=O)N[C@@H](CC(=O)O)C(=O)N[C@@H](CCC(=O)O)C(=O)N1CCC[C@H]1C(=O)N[C@@H](CO)C(=O)N[C@@H](CO)C(=O)NCC(=O)N[C@@H](C)C(=O)N1CCC[C@H]1C(=O)N1CCC[C@H]1C(=O)N1CCC[C@H]1C(=O)N[C@@H](CO)C(=O)O)C(C)C

How the values were obtained:
[1] = target: human glucagon receptor (GCGR) (human, UniProt P47871 26-477); assay: cell-based or functional assay
[2] = target: human GLP-1 receptor (GLP-1R) (human, UniProt P43220 24-463); assay: cell-based or functional assay
Sequence of human GLP-1 receptor (GLP-1R) (P43220 24-463): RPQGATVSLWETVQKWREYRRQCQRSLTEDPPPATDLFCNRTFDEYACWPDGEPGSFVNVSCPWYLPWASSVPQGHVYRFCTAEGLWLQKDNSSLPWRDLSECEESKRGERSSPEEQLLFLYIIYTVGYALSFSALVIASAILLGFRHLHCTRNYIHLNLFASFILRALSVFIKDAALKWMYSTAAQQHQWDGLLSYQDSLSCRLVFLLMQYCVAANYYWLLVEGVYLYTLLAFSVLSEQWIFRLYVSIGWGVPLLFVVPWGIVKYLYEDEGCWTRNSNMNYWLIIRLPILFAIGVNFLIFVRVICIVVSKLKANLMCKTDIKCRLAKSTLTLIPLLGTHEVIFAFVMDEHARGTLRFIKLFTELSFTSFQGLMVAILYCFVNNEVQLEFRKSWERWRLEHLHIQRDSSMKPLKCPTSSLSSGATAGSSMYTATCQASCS

| Binder | hGCGR pEC50 (cAMP) [1] | hGLP1 pEC50 (cAMP) [2] |
| --- | --- | --- |
| B1 | 13 pEC50 | < 9 pEC50 |
| B2 | 11.3 pEC50 | < 9 pEC50 |
| B3 | 11.2 pEC50 | < 9 pEC50 |
| B4 | 13.2 pEC50 | < 9 pEC50 |
| B5 | 12.3 pEC50 | < 9 pEC50 |
| B6 | 12 pEC50 | < 9 pEC50 |
| B7 | 11.4 pEC50 | < 9 pEC50 |
